Source: paper doi:10.1101/2025.03.14.643254

Target: MRE11 (human) (UniProt P49959)
Assay: cryo-EM structure

NBS1, sequence (O60934 whole entry): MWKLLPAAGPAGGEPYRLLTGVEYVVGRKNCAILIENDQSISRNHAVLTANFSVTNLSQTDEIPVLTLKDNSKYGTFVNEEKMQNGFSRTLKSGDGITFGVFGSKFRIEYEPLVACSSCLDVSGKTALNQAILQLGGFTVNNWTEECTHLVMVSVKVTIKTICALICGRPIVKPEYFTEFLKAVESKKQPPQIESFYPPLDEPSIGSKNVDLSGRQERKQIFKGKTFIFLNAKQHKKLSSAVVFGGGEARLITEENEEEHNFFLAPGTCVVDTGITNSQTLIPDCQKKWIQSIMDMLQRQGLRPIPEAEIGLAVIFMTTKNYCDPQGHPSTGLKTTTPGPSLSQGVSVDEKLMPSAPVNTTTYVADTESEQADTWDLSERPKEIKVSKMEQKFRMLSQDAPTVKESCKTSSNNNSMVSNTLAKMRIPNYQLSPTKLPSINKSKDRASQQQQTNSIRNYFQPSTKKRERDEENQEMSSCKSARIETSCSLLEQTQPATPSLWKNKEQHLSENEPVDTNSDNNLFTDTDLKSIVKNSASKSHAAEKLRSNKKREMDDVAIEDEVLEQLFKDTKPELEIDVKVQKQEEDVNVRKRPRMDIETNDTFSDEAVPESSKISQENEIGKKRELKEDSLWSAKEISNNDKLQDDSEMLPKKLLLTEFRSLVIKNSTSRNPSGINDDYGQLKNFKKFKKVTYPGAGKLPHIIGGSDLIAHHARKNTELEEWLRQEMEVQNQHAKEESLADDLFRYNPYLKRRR
MRE11 (human), sequence (P49959 whole entry): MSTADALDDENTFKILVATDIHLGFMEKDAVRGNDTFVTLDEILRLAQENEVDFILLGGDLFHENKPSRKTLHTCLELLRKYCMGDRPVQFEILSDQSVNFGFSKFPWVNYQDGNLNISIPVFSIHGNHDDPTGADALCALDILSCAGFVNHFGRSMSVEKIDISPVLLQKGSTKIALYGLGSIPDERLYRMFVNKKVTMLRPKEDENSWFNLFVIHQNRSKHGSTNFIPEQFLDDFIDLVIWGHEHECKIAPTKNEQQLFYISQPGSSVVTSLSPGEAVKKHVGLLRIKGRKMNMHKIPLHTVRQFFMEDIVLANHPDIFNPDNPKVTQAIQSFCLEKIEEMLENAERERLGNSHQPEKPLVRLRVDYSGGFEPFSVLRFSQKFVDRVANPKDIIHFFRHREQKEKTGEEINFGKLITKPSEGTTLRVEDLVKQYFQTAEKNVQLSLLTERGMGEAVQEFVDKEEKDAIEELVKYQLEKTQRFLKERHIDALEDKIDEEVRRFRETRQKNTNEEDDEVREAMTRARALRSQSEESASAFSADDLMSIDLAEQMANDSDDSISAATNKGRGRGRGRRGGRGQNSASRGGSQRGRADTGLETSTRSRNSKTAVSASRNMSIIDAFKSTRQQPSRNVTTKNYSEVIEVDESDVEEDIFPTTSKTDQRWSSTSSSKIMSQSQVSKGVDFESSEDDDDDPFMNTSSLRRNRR
MRE11, sequence (P49959 whole entry): as above

Row | stoichiometry N | stoichiometry N (NBS1 per MRE11 dimer) | Substance
1 | 2 |  | MRE11 (from UniProt P49959) (natural protein)
2 |  | 1 | NBS1 (from UniProt O60934) (natural protein)
